Laboratory results reported in patent publication US20240034786A1 (WUXI BIOLOGICS IRELAND, published 2024).

Key:
[1] = target: T1, Human P-cadherin on cells (human, UniProt P22223 108-829); test: FACS on DU-145 cells
T1 construct: whole, on cells; Endogenous P-cadherin on tumour cell lines; also called hPro1
Experimental: (§1) Binding of the test antibodies to P-cadherin expressed on cells was determined by flow cytometry analysis. […] 1×10⁵ cells/well (100 μL) were added to each well of a 96-well U-plate (Corning, #3799) and centrifuged at 1500 rpm (Eppendorf, #5810R) for 5 minutes before removing the supernatant. Antibodies serially diluted in 1% BSA/1×PBS (Ca+/Mg+) were added at 100 μL/well to the pelleted cells and incubated at 4° C. for 1 hour. Anon-related hIgG1 antibody was used as an isotype control. Cells were washed two times with 180 μL/well of 1% BSA/1×PBS (Ca+/Mg+) by centrifugation at 1500 rpm for 5 minutes at 4° C. Pelleted cells were resuspended in 100 μL/well Alexa647 conjugated Goat anti-human IgG Fc (Jackson, #109-605-098) 1:500 diluted in 1% BSA/1×PBS (Ca+/Mg+) for 30 minutes at 4° C. in the dark. Cells were then washed two times as described above. After the final wash, cells were resuspended in 100 μL 1% BSA/1×PBS (Ca+/Mg+) and fluorescence values were measured with a FACS Canto II cytometer (BD Biosciences). The amount of cell surface bound anti-P-cadherin antibody was assessed by measuring the mean fluorescence (MFI). The FACS raw data were analyzed by FlowJo software, wells containing no antibody or secondary antibody only were used to establish background fluorescence. Binding EC50 values were obtained by the four-parameter non-linear regression analysis using GraphPad Prism6 software.

[2] = target: T1, Human P-cadherin on cells; test: FACS on DU-145 cells; remark: listed apart in the source
Experimental: as §1

[3] = target: T1, Human P-cadherin on cells; test: FACS on HCT-116 cells
Experimental: as §1

[4] = target: T1, Human P-cadherin on cells; test: FACS on HCT-116 cells; remark: listed apart in the source
Experimental: as §1
Binding of the antibodies to human P-cadherin expressed on cells was determined by flow cytometry analysis.

[5] = target: T1, Human P-cadherin on cells; test: cell-based or functional assay
[6] = target: T1, Human P-cadherin on cells; test: cell-based or functional assay; remark: listed apart in the source
[7] = target: T1, Human P-cadherin on cells; test: cell-based or functional assay; remark: listed apart in the source
[8] = target: T1, Human P-cadherin on cells; test: cell-based or functional assay; remark: listed apart in the source
[9] = target: T1, Human P-cadherin on cells; test: FACS on HCT-116 cells, antibody kept in human serum at 37 C, Day 0
Experimental: (§2) The antibody stability in human serum was tested by FACS. Briefly, human serum was freshly isolated by centrifuging the fresh blood twice at 4000 rpm for 10 minutes. […] As a control, antibodies serum mix was frozen immediately without 37° C. incubation. For the FACS analysis, the samples from different time points were free-thawed simultaneously at 4° C. […] The cells were washed twice with 1% BSA/1×PBS (Ca+/Mg+). Alexa647 conjugated Goat anti-human IgG Fc (Jackson, #109-605-098) 1:500 diluted in 1% BSA/1×PBS (Ca+/Mg+) were added to the cells and incubated at 4° C. for 30 minutes. Cells were washed twice in the same buffer and the mean fluorescence (MFI) of stained cells was measured using a FACS Canto II cytometer (BD Biosciences) and analyzed by FlowJo. Wells containing no antibody or secondary antibody only were used to establish background fluorescence. Four-parameter non-linear regression analysis was used to obtain EC50 values for cell binding using GraphPad Prism6 software.

[10] = target: T1, Human P-cadherin on cells; test: FACS on HCT-116 cells, antibody kept in human serum at 37 C, Day 4
Experimental: as §2

[11] = target: T1, Human P-cadherin on cells; test: FACS on HCT-116 cells, antibody kept in human serum at 37 C, Day 7
Experimental: as §2

[12] = target: T1, Human P-cadherin on cells; test: FACS on HCT-116 cells, antibody kept in human serum at 37 C, Day 14
Experimental: as §2

T1 sequence (P22223 108-829): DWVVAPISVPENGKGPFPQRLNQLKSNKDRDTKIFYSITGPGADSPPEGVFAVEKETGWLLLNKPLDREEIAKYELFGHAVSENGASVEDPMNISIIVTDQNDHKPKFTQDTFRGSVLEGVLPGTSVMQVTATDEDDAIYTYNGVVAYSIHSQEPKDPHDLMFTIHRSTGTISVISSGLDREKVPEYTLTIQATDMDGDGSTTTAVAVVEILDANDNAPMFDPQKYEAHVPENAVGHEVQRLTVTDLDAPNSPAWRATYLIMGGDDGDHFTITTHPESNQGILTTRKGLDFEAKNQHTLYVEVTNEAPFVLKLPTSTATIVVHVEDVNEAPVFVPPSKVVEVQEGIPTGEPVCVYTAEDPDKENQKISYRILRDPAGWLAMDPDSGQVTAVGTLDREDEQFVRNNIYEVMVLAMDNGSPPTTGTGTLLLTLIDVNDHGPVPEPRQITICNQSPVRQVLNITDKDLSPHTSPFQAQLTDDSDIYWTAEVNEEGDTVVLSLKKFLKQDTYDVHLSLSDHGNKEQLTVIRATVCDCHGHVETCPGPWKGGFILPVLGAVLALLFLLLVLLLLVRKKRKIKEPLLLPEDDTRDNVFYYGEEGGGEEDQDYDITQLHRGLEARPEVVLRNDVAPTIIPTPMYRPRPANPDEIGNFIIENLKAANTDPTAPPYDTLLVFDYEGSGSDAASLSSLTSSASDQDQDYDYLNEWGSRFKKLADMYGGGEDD

EC50 [1]: 0.07 nM | Max MFI [1]: 2100 | EC50 [2]: 0.1 nM | Max MFI [2]: 2290 | EC50 [3]: 0.21 nM | EC50 [4]: 0.15 nM | Max MFI [4]: 4080 | internalization, Fab-ZAP CTG assay on HCC-1954, IC50 [5]: 0.02 nM | ADCC reporter gene assay, EC50 [6]: 0.052 nM | ADCC reporter gene assay, Max Fold Change [6]: 145 fold | cell aggregation assay on DU-145, EC50 [7]: 0.39 nM | cell aggregation assay on DU-145, Max Fold change [7]: 1.75 fold | internalization, Fab-ZAP on HCC-1954, IC50 [8]: 0.069 nM | internalization, Fab-ZAP on HCC-1954, Max Inh % [8]: 81% | EC50 [9]: 0.2 nM | EC50 [10]: 0.16 nM | EC50 [11]: 0.21 nM | EC50 [12]: 0.2 nM
B1: W3195-1.53.1-p1-uIgG1L (antibody)
heavy: not shown
light: SYELTQPPSVSVSPGQTAQITCSGDKLGDKFASWYQQKSGQSPVVVIYQDNKRPSGFPERFSGSNSGNTATLTISGTQAMDEADYYCQAWDSSIVVFGGGTKLTVLGQPKAAPSVTLFPPSSEELQANKATLVCLISDFYPGAVTVAWKADSSPVKAGVETTTPSKQSNNKYAASSYLSLTPEQWKSHRSYSCQVTHEGSTVEKTVAPTECS
notes: also called W3195-p1 antibody
